Measured values: patent publication US20060062761A1

Target: HLA-DR DRB1*0701 on fixed MOU (MANN) cells (human)
Assay: competition

Tetanus toxin 828-840 (from UniProt P04958 828-840)
IC50: 7 µM
